One assay concerns the target T1, GST-PP2AB’α (Arabidopsis thaliana, UniProt O04375 1-495).
T1 sequence (looked up): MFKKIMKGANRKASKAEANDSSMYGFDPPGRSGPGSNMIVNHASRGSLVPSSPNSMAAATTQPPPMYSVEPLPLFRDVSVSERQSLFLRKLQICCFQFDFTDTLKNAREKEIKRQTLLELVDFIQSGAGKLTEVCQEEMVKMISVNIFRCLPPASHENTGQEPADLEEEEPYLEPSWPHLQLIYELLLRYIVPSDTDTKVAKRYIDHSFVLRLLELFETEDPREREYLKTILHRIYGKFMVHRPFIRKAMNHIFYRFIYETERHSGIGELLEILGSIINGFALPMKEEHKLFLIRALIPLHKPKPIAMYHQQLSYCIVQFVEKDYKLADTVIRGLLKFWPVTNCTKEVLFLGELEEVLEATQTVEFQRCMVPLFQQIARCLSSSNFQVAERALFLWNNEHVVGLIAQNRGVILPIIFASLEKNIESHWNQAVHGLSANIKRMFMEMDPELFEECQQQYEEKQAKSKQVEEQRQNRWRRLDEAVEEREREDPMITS
The assay can be described thus: far-Western, overlay or dot blot.

Another assay deals with T2, GST-BIN2 (Arabidopsis thaliana, UniProt Q39011 1-380).
T2 sequence (looked up): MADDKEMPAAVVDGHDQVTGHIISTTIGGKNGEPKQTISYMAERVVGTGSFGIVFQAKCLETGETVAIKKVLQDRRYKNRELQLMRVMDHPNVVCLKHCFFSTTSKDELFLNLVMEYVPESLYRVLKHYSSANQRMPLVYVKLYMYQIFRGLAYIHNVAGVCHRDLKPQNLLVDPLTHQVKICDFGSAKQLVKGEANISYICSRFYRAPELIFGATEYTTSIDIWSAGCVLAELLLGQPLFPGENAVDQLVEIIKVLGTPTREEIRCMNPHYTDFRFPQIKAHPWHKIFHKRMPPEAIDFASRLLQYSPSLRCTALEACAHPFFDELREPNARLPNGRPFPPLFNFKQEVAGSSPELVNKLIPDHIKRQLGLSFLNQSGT
Nature of the assay: far-Western, overlay or dot blot.

B1: MBP-BZR1 (unphosphorylated) (natural protein, Arabidopsis thaliana, UniProt Q8S307 1-336, looked up)
chain: MTSDGATSTSAAAAAAAAAAARRKPSWRERENNRRRERRRRAVAAKIYTGLRAQGDYNLPKHCDNNEVLKALCVEAGWVVEEDGTTYRKGCKPLPGEIAGTSSRVTPYSSQNQSPLSSAFQSPIPSYQVSPSSSSFPSPSRGEPNNNMSSTFFPFLRNGGIPSSLPSLRISNSCPVTPPVSSPTSKNPKPLPNWESIAKQSMAIAKQSMASFNYPFYAVSAPASPTHRHQFHTPATIPECDESDSSTVDSGHWISFQKFAQQQPFSASMVPTSPTFNLVKPAPQQMSPNTAAFQEIGQSSEFKFENSQVKPWEGERIHDVGMEDLELTLGNGKARG
For the molecule B1, the binding result in the assay with GST-PP2AB’α and with GST-BIN2 was “binds” in each case.

B2: MBP-bzr1-1D (natural protein, Arabidopsis thaliana, UniProt Q8S307 1-336, looked up)
chain: MTSDGATSTSAAAAAAAAAAARRKPSWRERENNRRRERRRRAVAAKIYTGLRAQGDYNLPKHCDNNEVLKALCVEAGWVVEEDGTTYRKGCKPLPGEIAGTSSRVTPYSSQNQSPLSSAFQSPIPSYQVSPSSSSFPSPSRGEPNNNMSSTFFPFLRNGGIPSSLPSLRISNSCPVTPPVSSPTSKNPKPLPNWESIAKQSMAIAKQSMASFNYPFYAVSAPASPTHRHQFHTLATIPECDESDSSTVDSGHWISFQKFAQQQPFSASMVPTSPTFNLVKPAPQQMSPNTAAFQEIGQSSEFKFENSQVKPWEGERIHDVGMEDLELTLGNGKARG
Consider B2, for which the binding result in the assay with GST-PP2AB’α and with GST-BIN2 was “binds” throughout.

Values taken from paper PMC3077550 (Nature cell biology, 2011).
